Assay results: PMC10397247
Each block holds one binder with its values, some of them ahead of it.

Columns and labels:
P2p = target: T1, P2p; experiment: two-hybrid library CCmax; conditions: mean of both orientations;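 further: natural log of median RNA to DNA barcode read ratio; higher means stronger binding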
T1 chain: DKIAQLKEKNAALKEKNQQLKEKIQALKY

Core_NNIN-es_KEEE = target: T2, Core_NNIN-es_KEEE; experiment: two-hybrid library CCmax;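 further: natural log of median RNA to DNA barcode read ratio; higher means stronger binding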
T2 chain: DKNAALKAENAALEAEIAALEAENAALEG

4H1046-bH = target: T3, 4H1046-bH; experiment: two-hybrid library CCNG1; conditions: mean of both orientations;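 further: natural log of median RNA to DNA barcode read ratio; higher means stronger binding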
T3 chain: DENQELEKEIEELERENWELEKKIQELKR

4H363-bH = target: T4, 4H363-bH; experiment: two-hybrid library CCNG1;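 further: natural log of median RNA to DNA barcode read ratio; higher means stronger binding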
T4 chain: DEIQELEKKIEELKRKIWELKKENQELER

4H3907-bH = target: T5, 4H3907-bH; experiment: two-hybrid library CCNG1
T5 chain: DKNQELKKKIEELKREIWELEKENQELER

4H3961-bH = target: T6, 4H3961-bH; experiment: two-hybrid library CCNG1; conditions: mean of both orientations
T6 chain: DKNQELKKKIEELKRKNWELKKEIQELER

4H1072-bH = target: T7, 4H1072-bH; experiment: two-hybrid library CCNG1
T7 chain: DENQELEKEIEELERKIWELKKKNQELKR

4H2619-bH = target: T8, 4H2619-bH; experiment: two-hybrid library CCNG1
T8 chain: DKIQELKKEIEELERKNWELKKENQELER

4H2568-bH = target: T9, 4H2568-bH; experiment: two-hybrid library CCNG1
T9 chain: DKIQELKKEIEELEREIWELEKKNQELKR

4H344-bH = target: T10, 4H344-bH; experiment: two-hybrid library CCNG1
T10 chain: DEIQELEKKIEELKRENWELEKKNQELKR

4H470-bH = target: T11, 4H470-bH; experiment: two-hybrid library CCNG1
T11 chain: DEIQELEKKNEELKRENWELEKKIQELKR

4H2745-bH = target: T12, 4H2745-bH; experiment: two-hybrid library CCNG1
T12 chain: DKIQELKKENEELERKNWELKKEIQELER

P4S-Cys = target: T13, P4S-Cys; experiment: two-hybrid library CCNG1; conditions: mean of both orientations
T13 chain: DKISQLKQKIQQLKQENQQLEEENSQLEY

Core_IINI-es_KKKE = target: T14, Core_IINI-es_KKKE; experiment: two-hybrid library CCmax; conditions: mean of both orientations
T14 chain: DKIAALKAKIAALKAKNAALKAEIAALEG

Core_NINN-es_KEKK = target: T15, Core_NINN-es_KEKK; experiment: two-hybrid library CCmax; conditions: mean of both orientations
T15 chain: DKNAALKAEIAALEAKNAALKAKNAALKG

4H2915-bN = target: T16, 4H2915-bN; experiment: two-hybrid library CCNG1
T16 chain: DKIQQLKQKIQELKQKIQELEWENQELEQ

4H2134-bN = target: T17, 4H2134-bN; experiment: two-hybrid library CCNG1
T17 chain: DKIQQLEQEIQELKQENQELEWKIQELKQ

4H3277-bN = target: T18, 4H3277-bN; experiment: two-hybrid library CCNG1
T18 chain: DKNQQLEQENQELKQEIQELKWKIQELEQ

4H2717-bN = target: T19, 4H2717-bN; experiment: two-hybrid library CCNG1
T19 chain: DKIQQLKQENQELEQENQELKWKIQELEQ

4H40-bN = target: T20, 4H40-bN; experiment: two-hybrid library CCNG1
T20 chain: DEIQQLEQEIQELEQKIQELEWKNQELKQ

4H319-bN = target: T21, 4H319-bN; experiment: two-hybrid library CCNG1
T21 chain: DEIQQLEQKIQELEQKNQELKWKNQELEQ

4H492-bN = target: T22, 4H492-bN; experiment: two-hybrid library CCNG1
T22 chain: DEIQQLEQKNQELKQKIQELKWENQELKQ

4H3974-bA = target: T23, 4H3974-bA; experiment: two-hybrid library CCNG1
T23 chain: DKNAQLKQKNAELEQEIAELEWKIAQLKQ

4H2503-bN = target: T24, 4H2503-bN; experiment: two-hybrid library CCNG1
T24 chain: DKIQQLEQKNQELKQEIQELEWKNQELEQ

4H2839-bN = target: T25, 4H2839-bN; experiment: two-hybrid library CCNG1
T25 chain: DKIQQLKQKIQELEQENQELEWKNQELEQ

4H2588-bN = target: T26, 4H2588-bN; experiment: two-hybrid library CCNG1
T26 chain: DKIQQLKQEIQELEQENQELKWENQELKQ

4H2223-bN = target: T27, 4H2223-bN; experiment: two-hybrid library CCNG1
T27 chain: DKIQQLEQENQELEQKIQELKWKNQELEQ

4H3057-bN = target: T28, 4H3057-bN; experiment: two-hybrid library CCNG1
T28 chain: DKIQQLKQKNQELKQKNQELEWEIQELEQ

4H182-bN = target: T29, 4H182-bN; experiment: two-hybrid library CCNG1
T29 chain: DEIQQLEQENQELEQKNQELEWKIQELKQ

4H121-bN = target: T30, 4H121-bN; experiment: two-hybrid library CCNG1
T30 chain: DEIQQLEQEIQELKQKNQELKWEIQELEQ

4H2473-bN = target: T31, 4H2473-bN; experiment: two-hybrid library CCNG1
T31 chain: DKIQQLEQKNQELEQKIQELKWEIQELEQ

4H2143-bN = target: T32, 4H2143-bN; experiment: two-hybrid library CCNG1
T32 chain: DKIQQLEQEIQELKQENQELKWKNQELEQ

4H348-bN = target: T33, 4H348-bN; experiment: two-hybrid library CCNG1
T33 chain: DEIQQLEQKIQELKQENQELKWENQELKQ

4H2438-bN = target: T34, 4H2438-bN; experiment: two-hybrid library CCNG1
T34 chain: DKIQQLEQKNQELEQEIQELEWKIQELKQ

4H2692-bN = target: T35, 4H2692-bN; experiment: two-hybrid library CCNG1
T35 chain: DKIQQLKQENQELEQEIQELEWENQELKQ

4H477-bN = target: T36, 4H477-bN; experiment: two-hybrid library CCNG1
T36 chain: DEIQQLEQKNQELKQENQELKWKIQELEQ

4H741-bN = target: T37, 4H741-bN; experiment: two-hybrid library CCNG1
T37 chain: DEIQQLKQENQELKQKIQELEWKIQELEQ

Core_NNNI-es_KKKE = target: T38, Core_NNNI-es_KKKE; experiment: two-hybrid library CCmax; conditions: mean of both orientations
T38 chain: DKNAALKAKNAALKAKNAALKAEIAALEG

P3SH = target: T39, P3SH; experiment: two-hybrid library CCNG1
T39 chain: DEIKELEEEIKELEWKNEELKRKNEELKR

P7SH = target: T40, P7SH; experiment: two-hybrid library CCNG1
T40 chain: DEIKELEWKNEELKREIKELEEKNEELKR

P4SH = target: T41, P4SH; experiment: two-hybrid library CCNG1
T41 chain: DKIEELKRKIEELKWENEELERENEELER

P8SH = target: T42, P8SH; experiment: two-hybrid library CCNG1
T42 chain: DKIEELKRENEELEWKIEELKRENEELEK

P5SH = target: T43, P5SH; experiment: two-hybrid library CCNG1
T43 chain: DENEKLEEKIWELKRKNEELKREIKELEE

P6SH = target: T44, P6SH; experiment: two-hybrid library CCNG1
T44 chain: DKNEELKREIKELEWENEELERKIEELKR

P2-AA-1HAA-S = target: T45, P2-AA-1HAA-S; experiment: two-hybrid library CCmax; conditions: mean of both orientations
T45 chain: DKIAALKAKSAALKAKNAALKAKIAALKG

P2-AA-1HAA-D = target: T46, P2-AA-1HAA-D; experiment: two-hybrid library CCmax; conditions: mean of both orientations
T46 chain: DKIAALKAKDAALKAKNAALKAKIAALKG

P2-AA-1HAA-R = target: T47, P2-AA-1HAA-R; experiment: two-hybrid library CCmax; conditions: mean of both orientations
T47 chain: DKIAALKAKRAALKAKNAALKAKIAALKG

P2-AA-1HAA-K = target: T48, P2-AA-1HAA-K; experiment: two-hybrid library CCmax; conditions: mean of both orientations
T48 chain: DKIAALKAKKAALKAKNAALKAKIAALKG

P2-AA-1HAA-L = target: T49, P2-AA-1HAA-L; experiment: two-hybrid library CCmax; conditions: mean of both orientations
T49 chain: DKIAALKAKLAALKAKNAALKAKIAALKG

P2-AA-1HAA-T = target: T50, P2-AA-1HAA-T; experiment: two-hybrid library CCmax; conditions: mean of both orientations
T50 chain: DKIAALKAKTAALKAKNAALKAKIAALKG

P2-AA-1HAA-I = target: T51, P2-AA-1HAA-I; experiment: two-hybrid library CCmax; conditions: mean of both orientations
T51 chain: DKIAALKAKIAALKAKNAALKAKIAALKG

P2-AA = target: T52, P2-AA; experiment: two-hybrid library CCmax; conditions: mean of both orientations
T52 chain: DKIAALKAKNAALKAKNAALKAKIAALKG

B1: P1p (peptide)
chain: DEIQALEEENAQLEQENAALEEEIAQLEY
interaction score (P2p): 1.64

B3: 4H1046-bH (peptide)
chain: DENQELEKEIEELERENWELEKKIQELKR
interaction score (4H1046-bH): 0.287
interaction score (4H363-bH): -1.16
interaction score (4H3907-bH): -0.121
interaction score (4H3961-bH): -0.386
interaction score (4H1072-bH): -0.477
interaction score (4H2619-bH): 0.439
interaction score (4H2568-bH): 1.03
interaction score (4H344-bH): 1.33
interaction score (4H470-bH): 0.405
interaction score (4H2745-bH): 0.917

B7: 4H121-bN (peptide)
chain: DEIQQLEQEIQELKQKNQELKWEIQELEQ
interaction score (4H2915-bN): -0.211
interaction score (4H2134-bN): 1.52
interaction score (4H3277-bN): -1.33
interaction score (4H2717-bN): -0.302
interaction score (4H40-bN): -0.563
interaction score (4H319-bN): -1.04
interaction score (4H492-bN): -1.42
interaction score (4H3974-bA): 1.19
interaction score (4H2503-bN): -1.29
interaction score (4H2839-bN): -0.184
interaction score (4H2588-bN): -0.5
interaction score (4H2223-bN): -0.986
interaction score (4H3057-bN): -1.3
interaction score (4H182-bN): -0.748
interaction score (4H121-bN): -0.707
interaction score (4H2473-bN): -0.436
interaction score (4H2143-bN): -0.718
interaction score (4H348-bN): -0.398
interaction score (4H2438-bN): 1.48
interaction score (4H2692-bN): -1.02
interaction score (4H477-bN): -1.35
interaction score (4H741-bN): -1.39

B9: P3SH (peptide)
chain: DEIKELEEEIKELEWKNEELKRKNEELKR
interaction score (P3SH): 0.764
interaction score (P7SH): -0.109
interaction score (P4SH): 1.95
interaction score (P8SH): 0.525
interaction score (P5SH): 0.554
interaction score (P6SH): 0.737

B10: P1-AA-1HAA-D (peptide)
chain: DEIAALEAEDAALEAENAALEAEIAALEG
interaction score (P2-AA-1HAA-S): 1.57
interaction score (P2-AA-1HAA-D): 0.443
interaction score (P2-AA-1HAA-R): 1.66
interaction score (P2-AA-1HAA-K): 1.56
interaction score (P2-AA-1HAA-L): 2.16
interaction score (P2-AA-1HAA-T): 1.59
interaction score (P2-AA-1HAA-I): 1.89
interaction score (P2-AA): 2.18

The remaining lines, values ahead:

interaction score (Core_NNIN-es_KEEE): 1.83
B2: Core_NNIN-es_EKKK (peptide)
chain: DENAALEAKNAALKAKIAALKAKNAALKG

interaction score (P4S-Cys): 1.92
B4: Cys-P3S (peptide)
chain: DEIQQLEEEISQLEQKNSQLKEKNQQLKY

interaction score (Core_IINI-es_KKKE): 2.3
B5: Core_IINI-es_EEEK (peptide)
chain: DEIAALEAEIAALEAENAALEAKIAALKG

interaction score (Core_NINN-es_KEKK): 1.5
B6: Core_NINN-es_EKEE (peptide)
chain: DENAALEAKIAALKAENAALEAENAALEG

interaction score (Core_NNNI-es_KKKE): 2.16
B8: Core_NNNI-es_EEEK (peptide)
chain: DENAALEAENAALEAENAALEAKIAALKG
